Our source for the binding score values is PMC5454392, “Selective BET bromodomain inhibition as an antifungal therapeutic strategy” (Nature Communications, 2017).

The chains are these.
T1: CaBdf1 BD1 (GST-tagged, wild-type) (Candida albicans (strain SC5314 / ATCC …, UniProt Q5A4W8))
T1 chain: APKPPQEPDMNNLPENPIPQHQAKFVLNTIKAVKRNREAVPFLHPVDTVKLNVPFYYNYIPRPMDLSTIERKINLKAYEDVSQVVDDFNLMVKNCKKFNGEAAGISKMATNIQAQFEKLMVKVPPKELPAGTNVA

B1: H3 1-19 (peptide)
chain: ARTKQTARKSTGGKAPRKQ
modifications: A R T K Q T A R Kme3 S T G G Kac A P R K Q
B2: H3 1-19 (peptide)
chain: ARTKQTARKSTGGKAPRKQ
modifications: A R T Kme3 Q T A Rme2a Kme1 S T G G K A P R K Q
B3: H3 1-19 (peptide)
chain: ARTKQTARKSTGGKAPRKQ
modifications: A Rme2a T Kme1 Q T A Rme2a Kme3 S T G G K A P R K Q
B4: H3 1-19 (peptide)
chain: ARTK(Me2)QTAR(Me2a)K(Me3)STGGKAPRKQ
modifications: reading uncertain
B5: H3 1-19 (peptide)
chain: AR(me2a)TK(Me)QTARKSTGGKAPRKQ
modifications: reading uncertain
B6: H3 1-19 (peptide)
chain: ARTKQTARKSTGGKAPRKQ
modifications: A R T Kme3 Q T A Rme2a Kme2 S T G G K A P R K Q
B7: H3 1-19 (peptide)
chain: AR(Me2a)[pT]KQTARKSTGGKAPRKQ
modifications: reading uncertain
B8: H3 1-19 (peptide)
chain: A[Arg(Me2s)]TK(Me)QTARK(Me)STGGKAPRKQ
B9: H3 1-19 (peptide)
chain: ARTKQTARKSTGGKAPRKQ
modifications: A R T K Q T A Rme2a K S pT G G K A P R K Q
B10: H3 1-19 (peptide)
chain: ARTKQTARKSTGGKAPRKQ
modifications: A Rme2a T Kme2 Q T A Rme2a K S T G G K A P R K Q
B11: H3 1-19 (peptide)
chain: ARTKQTARKSTGGKAPRKQ
modifications: A Rme2a T Kme2 Q T A R Kac S T G G K A P R K Q
B12: H3 1-19 (peptide)
chain: ARTK(me2)QTAR(me2s)K(me3)STGGKAPRKQ
B13: H3 1-19 (peptide)
chain: ARTKQTARKSTGGKAPRKQ
modifications: A R T K Q T A Rme2a Kme2 S T G G K A P R K Q
B14: H3 1-19 (peptide)
chain: ARTKQTARKSTGGKAPRKQ
modifications: A Rme2s T Kme2 Q T A Rme2a Kme3 S T G G K A P R K Q
B15: H3 1-19 (peptide)
chain: ARTK(me2)QTAR(me2s)K(Me)STGGKAPRKQ
B16: H3 1-19 (peptide)
chain: A[Arg(Me2s)]T[Lys(Me2)]QTA[Arg(Me2a)][Kac]STGGKAPRKQ
B17: H3 1-19 (peptide)
chain: ARTKQTARKSTGGKAPRKQ
modifications: A Rme2a T Kme3 Q T A Rme2a K S T G G K A P R K Q
B18: H3 1-19 (peptide)
chain: ARTKQTARKSTGGKAPRKQ
modifications: A R T K Q T A Rme2a Kac pS pT G G K A P R K Q
B19: H3 1-19 (peptide)
chain: A[Arg(Me2s)]T[Lys(Me)]QTA[Arg(Me2a)][Lys(Me2)]STGGKAPRKQ
B20: H3 1-19 (peptide)
chain: A[Arg(Me2s)]T[Lys(Me3)]QTA[Arg(Me2a)][Lys(Me3)]STGGKAPRKQ
B21: H3 1-19 (peptide)
chain: ARTKQTARKSTGGKAPRKQ
modifications: A Rme2s T Kme3 Q T A Rme2a Kme2 S T G G K A P R K Q
B22: H3 1-19 (peptide)
chain: ARTKQTARKSTGGKAPRKQ
modifications: A Rme2s T Kme3 Q T A R Kme1 S T G G K A P R K Q
B23: H3 1-19 (peptide)
chain: ARTKQTARKSTGGKAPRKQ
modifications: A Rme2s T Kme3 Q T A Rme2s K S T G G K A P R K Q

Numbered stars: 1 amine (or outer) side, 2 acyl side, 3 side chain; on linkers, the order of the positions; unused ones are H or OH. Square brackets hold non-standard residues; d marks the D form. Ends that are not written are not given here. Arg(Me2a) = CN(C)C(=N)NCCC[C@H](N)C(=O)O; Kac = CC(=O)NCCCC[C@H](N[*:1])C(=O)[*:2]; Lys(Me3) = C[N+](C)(C)CCCC[C@H](N)C(=O)O; Arg(Me2s) = CN=C(NC)NCCC[C@H](N)C(=O)O; pT = C[C@@H](OP(=O)(O)O)[C@H](N)C(=O)O; Lys(Me2) = CN(C)CCCC[C@H](N)C(=O)O; Lys(Me) = CNCCCC[C@H](N)C(=O)O; Me2a = not defined here; me2a = not defined here

The target in this test is T1, CaBdf1 BD1 (GST-tagged, wild-type). Briefly: histone peptide array (Active Motif MODified), 1 uM GST-tagged bromodomain, anti-GST detection, normalized mean intensity.
B1 came in with a binding score of 0.0225.

For B2, the binding score came to 0.00435.

Molecule B3 yielded a binding score of 0.00435.

As for B4, the binding score was found to be 0.00181.

As to B5, the binding score was determined as 0.0029.

In the case of B6, the binding score was 0.00254.

As for B7, the binding score was found to be 0.00181.

Molecule B8 returned a binding score of 0.0029.

B9: the binding score amounted to 0.00399.

Regarding B10, the binding score turned out to be 0.00508.

On to B11, for which the binding score is 0.0337.

Molecule B12 registered a binding score of 0.0029.

Regarding B13, the binding score stood at 0.0029.

Molecule B14 came in with a binding score of 0.00508.

With B15, the binding score was determined as 0.00544.

In turn, B16 registered a binding score of 0.0402.

B17: the binding score was found to be 0.00363.

Regarding B18, the binding score was determined as 0.00616.

In the case of B19, the binding score came to 0.00471.

Molecule B20 returned a binding score of 0.00363.

In turn, B21 registered a binding score of 0.0029.

Molecule B22 had a binding score of 0.00471.

Consider B23, for which the binding score is 0.0029.
